# Laboratory results: patent US20100135904A1 (RESEARCH DEVELOPMENT FOUNDATION, published 2010)
# B1: endogenous human GRP78 (glucose regulated protein 78) at the cell surface (receptor)
# chain: not shown
# notes: whole, on cells; Endogenous protein; surface pool labelled with cell-impermeable biotin in the co-immunoprecipitations; also called BiP; cell surface GRP78
# Tests used:
# [1] = target: T1, TGF-β type II receptor, His-tagged (TβRII-His) (UniProt P37173 23-166, limits assumed); assay: anti-His immunoprecipitation from surface-biotinylated 293T cells, avidin-HRP and anti-GRP78 blots
# T1 construct: whole, on cells; Gift construct; also called TBβRII-His; TBβRII; not shown: His tag
# Experimental: (§1) Cell lysates and immunoprecipitations. Cell lysates were prepared in RIPA buffer as previously described (Gray et al., 2006). For immunoprecipitation experiments, 1-5 mg protein extract was pre-cleared by protein G-PLUS-Agarose beads for 2 hours at 4° C. The pre-cleared extracts were incubated as indicated with 40 μl anti-FLAG M2 gel beads or 20 μl G-PLUS-Agarose pre-incubated with 15 μl anti-GRP78 (KDEL), 10 μl anti-HA, or 25 μl anti-His for 2 hours at 4° C. Immunoprecipitates were subsequently washed 4 times with RIPA buffer and 2 times with 54K buffer (50 mM tris pH 7.9, 150 mM NaCl, 0.5% Triton X-100). The proteins were then eluted either by heating the beads at 95° C. in sample buffer or by the addition of 50 μl of Flag peptide (1 μg/μl) followed by removal of any remaining associated proteins by heating in sample buffer. Western blotting
# (§2) The finding that GRP78 inhibits TGF-β signaling raised the possibility that it does so by binding directly to type I and/or type II TGF-β signaling receptors. […] Here the inventors have further tested whether GRP78 similarly co-immunoprecipitates with TBβRI and TBβRII. […] Each of these proteins was immunoprecipitated as bait and then immune complexes were assessed for the presence of GRP78. […] However, only Cripto pulled down endogenous GRP78 as detected both by avidin-HRP and anti-GRP78 antibody (FIG. 5).
# [2] = target: T2, human GRP78 with a hemagglutinin (HA) epitope at its C terminus (human, UniProt P11021 19-654); assay: cell-free pull-down of biotinylated GRP78-HA on Cripto mutant beads
# T2 construct: also called GRP78-HA; WT GRP78-HA
# Description: To further characterize the ability of Cripto to bind cell surface GRP78, the inventors tested whether GRP78 from one population of cells could bind mature Cripto isolated from a separate cell population in a cell free system. […] The beads were then washed again and bound proteins were eluted with Flag peptide and subjected to Western blotting using avidin-HRP, anti-GRP78 or anti-Cripto antibodies. […] Moreover, biotinylated (i.e. cell surface-labeled) GRP78 was specifically eluted from beads previously exposed to Cripto-Flag lysates but not from beads exposed to vector lysates.
# In order to explore the interaction between Cripto and GRP78 further, the inventors used the method described above (FIG. 2B) to test whether cell surface labeled GRP78 binds Cripto mutants lacking either the EGF-like domain (AEGF) or CFC domain (ACFC). In this experiment, the inventors assessed the ability of biotinylated, HA-tagged GRP78 from one cell population to bind wild type and mutant forms of Cripto originating from separate cell populations.
# [3] = target: B1; assay: anti-HA immunoprecipitation from surface-biotinylated 293T cells, avidin-HRP and anti-GRP78 blots
# Experimental: as §1, §2
# T2 sequence (P11021 19-654 limits assumed): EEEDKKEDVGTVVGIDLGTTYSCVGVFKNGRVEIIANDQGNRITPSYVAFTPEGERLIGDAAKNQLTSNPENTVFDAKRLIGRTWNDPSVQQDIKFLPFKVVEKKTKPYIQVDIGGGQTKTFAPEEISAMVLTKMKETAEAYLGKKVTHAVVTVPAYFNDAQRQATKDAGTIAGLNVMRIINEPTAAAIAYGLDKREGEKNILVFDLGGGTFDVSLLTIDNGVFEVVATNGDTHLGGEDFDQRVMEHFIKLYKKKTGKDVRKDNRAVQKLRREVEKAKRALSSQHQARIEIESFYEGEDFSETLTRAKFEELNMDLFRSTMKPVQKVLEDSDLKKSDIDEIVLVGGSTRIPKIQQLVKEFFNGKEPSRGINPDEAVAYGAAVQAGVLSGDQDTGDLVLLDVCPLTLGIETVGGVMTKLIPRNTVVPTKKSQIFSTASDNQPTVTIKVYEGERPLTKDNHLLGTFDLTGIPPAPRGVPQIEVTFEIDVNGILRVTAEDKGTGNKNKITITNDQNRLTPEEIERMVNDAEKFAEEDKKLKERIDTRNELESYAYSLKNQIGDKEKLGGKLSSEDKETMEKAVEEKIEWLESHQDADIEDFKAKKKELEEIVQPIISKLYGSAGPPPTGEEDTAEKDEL
# T1 sequence (P37173 23-166 limits assumed): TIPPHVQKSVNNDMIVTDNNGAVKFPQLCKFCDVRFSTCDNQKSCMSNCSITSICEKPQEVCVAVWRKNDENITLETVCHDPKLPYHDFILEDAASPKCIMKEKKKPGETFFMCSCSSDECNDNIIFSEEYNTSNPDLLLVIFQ
binder,measurement,setting,value
B1,binding result,[1],no binding
"Cripto mutant lacking the CFC domain (ΔCFC), Flag-tagged (ligand, not shown: small tags and cut ends, also called Cripto ACFC mutant; ACFC) not shown",binding result,[2],no binding
"TGF-β type I receptor, HA-tagged (TβRI-HA) (receptor, UniProt P36897 34-503, looked up, not shown: small tags and cut ends, whole, on cells; Gift construct; also called TBβRI-HA; TBβRI) LQCFCHLCTKDNFTCVTDGLCFVSVTETTDKVIHNSMCIAEIDLIPRDRPFVCAPSSKTGSVTTTYCCNQDHCNKIELPTTVKSSPGLGPVELAAVIAGPVCFVCISLMLMVYICHNRTVIHHRVPNEEDPSLDRPFISEGTTLKDLIYDMTTSGSGSGLPLLVQRTIARTIVLQESIGKGRFGEVWRGKWRGEEVAVKIFSSREERSWFREAEIYQTVMLRHENILGFIAADNKDNGTWTQLWLVSDYHEHGSLFDYLNRYTVTVEGMIKLALSTASGLAHLHMEIVGTQGKPAIAHRDLKSKNILVKKNGTCCIADLGLAVRHDSATDTIDIAPNHRVGTKRYMAPEVLDDSINMKHFESFKRADIYAMGLVFWEIARRCSIGGIHEDYQLPYYDLVPSDPSVEEMRKVVCEQKLRPNIPNRWQSCEALRVMAKIMRECWYANGAARLTALRIKKTLSQLSQQEGIKM",binding result,[3],no binding
